Assay: label from the status in PepcDB records
With “MAPHSLKKNYRCSRSLKQFYGGGPFIVSSDGSFIACACGDVINIVDSTDSSVKSTIEGESDTLTALALSPDDKLLFSAGHSRQIRVWDLETLKCIRSWKGHEGPVMGMACHASGGLLATAGADRKVLVWDVDGGFCTHYFRGHKGVVSSILFHPDSNKNILISGSDDATVRVWDLNAKNTEKKCLAIMEKHFSAVTSIALSEDGLTLFSAGRDKVVNLWDLHDYSCKATVATYEVLEAVTTVSSGTPFASFVASLDQKKSKKKESDSQATYFITVGERGVVRIWKSEGSICLYEQKSSDITVSSDDEESKRGFTAAAMLPSDHGLLCVTADQQFFFYSVVENVEETELVLSKRLVGYNEEIADMKFLGDEEQFLAVATNLEEVRVYDVATMSCSYVLAGHKEVVLSLDTCVSSSGNVLIVTGSKDKTVRLWNATSKSCIGVGTGHNGDILAVAFAKKSFSFFVSGSGDRTLKVWSLDGISEDSEEPINLKTRSVVAAHDKDINSVAVARNDSLVCTGSEDRTASIWRLPDLVHVVTLKGHKRRIFSVEFSTVDQCVMTASGDKTVKIWAISDGSCLKTFEGHTSSVLRASFITDGTQFVSCGADGLLKLWNVNTSECIATYDQHEDKVWALAVGKKTEMIATGGGDAVINLWHDSTASDKEDDFRKEEEAILRGQELENAVLDAEYTKAIRLAFELCRPHKVFELFSGLCRKRDSDEQIVKALQGLEKEEFRLLFEYVREWNTKPKLCHIAQFVLYKTFNILPPTEIVQVKGIGELLEGLIPYSQRHFSRIDRFVRSSFLLDYTLGEMSVIDPETVETEYPKDEKKKEKDVIAAMEQDTDELKQETPSRKRKSQKSKGKSNKKRLIAEAQGSVIAV” the protein production was “failed”. With “MAPKAGKKPAEKKPAEKAPAEEEKVAEKAPAEKKPKAGKKLPKEAVTGGVEKKKKRVKKSTETYKIYIFKVLKQVHPDIGISSKAMGIMNSFINDIFEKLAQEASKLARYNKKPTITSREIQTAVRLVLPGELAKHAVSEGTKAVTKFTSS” the protein production was “failed”. In the case of “MAPKDITFVERCYKYIDMNKNNWSPYTVTSTKSWVKNYIEPFFKNLKLTEVNPSSVQAFVNYNFNNSTFTSAKVRYSFLSSVIREAYRLREIQENSCDFIKLPLEHHHHHH”, the protein production is reported as “not failed”. For “MAPLRTKAVEVLQRNSRGAFTVPAHGLYPYQWLWDSAFIALGWTQVDWERAWQELLCLFDYGQGPDGMLPHIVFHEQSRDYFPGPDVWGREARAQPATSGITQPPVVATVVRYLYEKDPDRDRARERARYLFPKLLAFHRWLYHARDPYRTGLVVIVHPWESGMDNSPAWDKPLSRVPVENLPPYERRDVKHVNPEERPRKEDYDRYLSLLYLFRRLEYDPREIYRQSPFKVVDVGFNAILQRANRDLYALAVLLQEDPYEIEEWIVRGEVGLEALWDREAGFYFSWDLVAGEPIAVKTSAGFLPLFAGTPHQGRASLLAQEAERWGEKARYLLPSVDPTSPFFEPGRYWRGPVWINVNWMVAEGFRDYGFAALAARLKADALALMEREGFREYYDPLTGQGRGGEGFSWSAALALFWTR”, the protein production was “not failed”. With “MAPRKRNPNGSGSIWQRKDGRYEARVYVPQPDGTRKRKTVYGTTWEECDTKRQELVLRDRQGIPTPTRSAKLSEWLPYWLKHYVEPRRKLSTYDKYEVQVRLYLVPLLGTRRLESLSVADVRRFITRVQNAHTAATAKESHRVLRTALTAAVREELITRNVASLVEPPRVKQREIRPWSLEETLSFLEAARSDPLYAAFVLAIAMGLRRGELGGLRWSDVDLDNRVVHVRQQTQRRRGTLYDDDPKSRRIRVVPMPALCIAPLRWHRLRQRETFARTGVAWCEAGYVFATRNGRPVEPRNVYRSFTRVAADAGLRVVRLHDARHGCATLLTAAGVAPRVIMEILGHSQISITMDVYTHVVHDTQREAISHMDRLLKRRLPTSLSGGAGSIEFP” the protein production was “failed”. For “MAQADTPAPVARLPRRRGIELALILMAVLLSVFGYCNVGLAQHDALPPGAAGYGAGLGVLALLAHLAVRLRAPYADPLLLPIGVLLNGLGLVLIYRLDLETPGDRAAPTQLVWSTLGVALFIVVVLLLRDHRVLQRYAYVCVAAALALLTVPIFFPAVNGARIWIRIEGFSIQPGEFAKVLLAVFFAAYLAANRSALAYAGRRVWRLQLPTGRVLGPILAVWLVSVGVLVLERDLGTSLLFFGLFVVLLYVATGRTGWIAVGLLLASLGAVAVGWLEPHVHSRVEDWLHPFASIEAGHGPNQLAQSLFAFAAGGVTGTGLGLGHSVLIGFAVKSDFILATAGEELGFLGLSAVFLLYGLLVERGYRAGLGARDPFGRLLAVGLSSIVALQVFVIAGGVTGLIPLTGMAMPFLAQGGSSVVTNWAIVALLIRVSHAARSQAGGRAEP”, the protein production was “failed”. For “MAQIISNAAVGRTLLILLLCAGVFFFIDFLVPALAALIICFSSWPLYKKLLVKCGGRSAVAASIALVLIVLGLITPLIFVFSYALQEIRIWAEWLVYANQHGAPVPLWIKDLPWVGEWLTLQWQQFIGEPHELGQIVSAISGQNLTGISRWVLQLGWNTLGLLLTLLFMLITLFFLYKDGESVAKQVDVVGERILPARWYRFSRVVPATVSSTVIGMTLIAIGEGIVLGIAYWIAGVPSAVAFGVLTAFMALIPGGAPTMFTLISLYLVGTGDMTAGVGLFLWGSIELFIVDKTLRPNLVGGPIKLPFLPTFFGLIGGVKTMGFVGLFVGPVLMALLVAIWREWLRDDPDTFVMPESLAPETLEADKVQRRLD”, the protein production was “failed”. In the case of “MAQISQLSAVILAGGLARRMNGNEKGLCLLHQQPLISHILARLTPQVCTIYFNINRSFATYQQLYPQLTYYSDKIADFQGPLSGILSGFEKIDSEYLLFVPCDTPFLPKNLVTKLTNSLIMNEATIAYAHDGEQAHPTIALIHRSITPALASYLASGERRLYHFFKTQKSIAVDFSDQKNAFQNFNSLADLEQFSTISATRVDQSRLLGITGYSGTGKTTLLEKLIPILTANGIKVGLIKHSHHNVDIDKNGKDSHRLRTAGANPTIIVCQQRWALMTETPQQAVDFQQLITKFDPESVDLILVEGFKDEQFAKIQLHRQVIKKPLPELDEWTIATATDYPIARPNLLDINQIDKIADFIQQWLNN”, the protein production is reported as “failed”. With “MAQKVEAGGGAGGASWDDGVHDGVRKVHVGQGQDGVSSINVVYAKDSQDVEGGEHGKKTLLGFETFEVDADDYIVAVQVTYDNVFGQDSDIITSITFNTFKGKTSPPYGLETQKKFVLKDKNGGKLVGFHGRAGEALYALGAYFATTTTPVTPAKKLSAIGGDEGTAWDDGAYDGVKKVYVGQGQDGISAVKFEYNKGAENIVGGEHGKPTLLGFEEFEIDYPSEYITAVEGTYDKIFGSDGLIITMLRFKTNKQTSAPFGLEAGTAFELKEEGHKIVGFHGKASELLHQFGVHVMPLTN” the protein production was “failed”. With “MAQTDKHYFGTLLAQTSRAWRAELDRRLSHLGLSQARWLVLLHLARHRDSPTQRELAQSVGVEGPTLARLLDGLESQGLVRRLAVAEDRRAKHIVLTPKADVLIADIEAIAASVRNDVLTGIDESEQALCQQVLLRILANLENR” the protein production was “not failed”. For “MARGDEGGENMIKIYTLGGYEEVGKNMTAVEYEGEVVIIDMGIRLDRVLIHEDVEFQKMSSKDLRKLGAIPDDRPIRDKKVVAIALSHGHLDHIGAVGKLAPHYPDVPIYGTPYTIRLAKSEIKGEEYFEVTNPLYETNYGEIVQVSENLAIEFVQVTHSIPHSSIVVIHTPEGAVVYACDYKFDNNHPYGEKPDYKRLKELGKEGVKVLIAESTRVAEETKTPSEAVAKMLLEDFFLYEGMEADGLIATTFASHIARLQELIEIANKMGRQAIFIGRSLAKYTGIAKQLGLIKMKGSRVLRSPNAVSKVLKEVSQARENYLLIVTGHQGEPGAILTRMANGELYDIGPRDTVVFSAGVIPNPLNIAQRYALETKLKMRGVRMIKDLHVSGHASKEDHRYLIRMLNPEYIVPAHGEFRMLTHYAELAEEEGYRIGKDVFISRNGHIVEII”, the protein production was “failed”. In the case of “MARNKGWVGATCCFLLFTVVFLSQKIEVSEVAVNDGLRGSPGMLLFLLPGMVACFLSARGRLLYPLFGALAAMPVCLLLLHLWNTPMRSFWQELAYVMSAVFWCVLGAMGVLCLRSLYRRYLR”, the protein production is reported as “not failed”. In the case of “MARPAKLAKISDLFCCTTCPAIDDTCVAPCEGEAPQPFQLHDIPCPPGLHTNLIEPPDMTQNIYDDPIFFQAYSQMGRSLGGLDAAPEWPALQALLPPMNGLRVLDLGCGYGWFSRWASEHGARQVVGLDVSQKMLATARATTSAPNVQYQQEDLEQLRLPACSFDLAYSSLALHYIKDLPGLFAQVYAALVPGARLVFSIEHPIFMAPRNPGWQVDAQGRQSWPVDSYQQEGERVTDWLAEGVIKQHRTLGTLLNTLIDTGFNLRHVQEWGPTAQQIEDLPALAEERERPMLLLVAAQR”, the protein production is reported as “failed”. In the case of “MARPHFALTSVFLASSVSLSAFGFSLPARAQSEDVAQKCQQPIKSVEASFAACTAAIDTGALSGKALAGAYIKRGFLRTRQRDLVGAEADLDAAIKANPDAADAYTTRANFWNVSGKPERALADADQAIKLDPNLPLAHFVRGSAELKLGHDDRAIADYSRAIELRPKESGEVYAVRGFAYHRKGDDIRAVADYTEALKAAPEDVGTLLNRGDARRNLRDTAGAAADYSEAIKLAPGNAGGFKGRGFIRLLTQDTGGAVADFTEAIRLSPSESGLYLNRASALGLQNQSLLALADEDMAIRLEPQHPLAYVNRAETLKLLGDKVAARASVTKALQLAPGFPPAVEVLKKLGEPKRSKEPSSEAAQEAYRRCTFPVTDLGPGEEGIKQIIKVCTLLVTAQGGSDANRALVHLQRGSMYRRQGDYQHALIDFSESLRYDPESALAYTGRGNAYRGLKLLDQALADHTEAIRLDPKYATAYNNRGNVWRDKNDLAKAIADFDRAIAISPNYAMAYFNRGNSRLESGDKEGAVADFQQTVKLSPQFKEAAERLQELGVRM”, the protein production is reported as “failed”. In the case of “MARPNFRYTHYDLKELRAGTTLEISLSSVNNVRLMTGANFQRFTELLDFKYLGGVAKKSPIRIAVPETMHWHLIIDAEGHSGLAESSVKMLPAQPQATLTRKAS”, the protein production is reported as “not failed”. For “MARRYAIYDVFTERRLAGNPLAVVFEAEGLAEEAMQAIAQEFNLSETVFILRPGNAAHSARLRIFTPAHELPFAGHPTVGAAVAIAEAAYGEANSALELMQVLEESVGPVRAAVRLKPGAATFAEFDLPRKPIRLHAQLDRQEIADALALKTTQVGFENHVPSFWSAGVPFVMIPLRDVGAAASVEFDPQRWEHLAPLAEGRLAAAYLYCRGGINHTARFHARMFAPGMGLAEDPATGSAVAALSGAINFFDGLVDGHHPMLIEQGVEMGRPSFIHLHLDIAEGKIAGARIGGHAVKVAEGELAV”, the protein production was “failed”. In the case of “MARVAIPSVGKDLSSMVSDRFARAEYFIIYDTESGNVEVVENTIADAHGTGPKVVQSLVSKGVEYLIASNVGRNAFETLKAAGVKVYRFEGGTVQEAIDAFSEGRLEELTTFTREG”, the protein production is reported as “not failed”. In the case of “MARVARWFLAVETVAFLGAAGVHAGVLWRGHEHARAATAETVIGVVLGLALLAAAARPRWSRRAAIGAQAFALLGTAVGLFTIAIGVGPRTAPDLAFHVAIVATLVVGLLRLARPTAGLREATP”, the protein production is reported as “failed”. With “MARVLVSSPSSFFGSPLIKPSSSLRHSGVGGGGTAQFLPYRSNNNKLFTTSTTVRFSLNEIPPFHGLDSSVDIGAIFTRAESLLYTIADAAVVGADSVVTTDSSAVQKSGGWFGFISDAMELVLKILKDGLSAVHVPYAYGFAIILLTIIVKAATYPLTKQQVESTLAMQNLQPKIKAIQQRYAGNQERIQLETSRLYKQAGVNPLAGCLPTLATIPVWIGLYQALSNVANEGLFTEGFFWIPSLGGPTSIAARQSGSGISWLFPFVDGHPPLGWYDTVAYLVLPVLLIASQYVSMEIMKPPQTDDPAQKNTLLVFKFLPLMIGYFALSVPSGLSIYWLTNNVLSTAQQVYLRKLGGAKPNMDENASKIISAGRAKRSIAQPDDAGERFRQLKEQEKRSKKNKAVAKDTVELVEESQSESEEGSDDEEEEAREGALASSTTSKPLPEVGQRRSKRSKRKRTV” the protein production was “failed”. In the case of “MARVQIDLPDKFIYSTKLQVRIGDVAAGFHMGNHMLISYLNEALLLFFREAGVIGMFGTKMNLIDADLAVIYKTEAAHGDMLRVDLGIIPSGIYGFDAFYRVTNERTGEEIAIAKMAMLFFDYEQRQISPVPEAFTVALPKIYNRAIPSTE”, the protein production is reported as “failed”.

Source: a protein production outcome set (Wang et al. 2014)
